In paper PMC9482650, “Quantitative fragmentomics allow affinity mapping of interactomes” (Nature Communications, 2022):

T1: APBA1_1, Q02410
T1 sequence (Q02410 651-752, limits assumed, looked up): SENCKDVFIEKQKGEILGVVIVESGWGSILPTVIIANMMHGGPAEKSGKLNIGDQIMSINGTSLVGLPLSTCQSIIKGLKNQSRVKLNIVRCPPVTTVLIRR

T2: APBA2_1, Q99767
T2 sequence (Q99767 563-664, limits assumed, looked up): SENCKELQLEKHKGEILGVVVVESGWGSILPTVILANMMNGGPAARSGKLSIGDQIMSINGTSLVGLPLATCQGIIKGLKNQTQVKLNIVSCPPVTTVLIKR

T3: APBA2_2, Q99767
T3 sequence (Q99767 654-744, limits assumed, looked up): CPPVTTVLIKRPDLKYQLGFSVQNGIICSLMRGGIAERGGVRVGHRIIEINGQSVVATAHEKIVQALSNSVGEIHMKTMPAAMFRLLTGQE

T4: ARHGEF11, O15085
T4 sequence (O15085 42-136, limits assumed, looked up): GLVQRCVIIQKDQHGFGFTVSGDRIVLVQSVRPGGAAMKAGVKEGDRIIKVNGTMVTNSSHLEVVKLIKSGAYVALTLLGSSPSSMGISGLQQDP

T5: DFNB31_1, Q9P202
T5 sequence (Q9P202 135-233, limits assumed, looked up): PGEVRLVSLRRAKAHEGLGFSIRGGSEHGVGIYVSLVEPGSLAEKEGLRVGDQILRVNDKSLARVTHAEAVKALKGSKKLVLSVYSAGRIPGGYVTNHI

T6: DLG3_3, Q92796
T6 sequence (Q92796 374-475, limits assumed, looked up): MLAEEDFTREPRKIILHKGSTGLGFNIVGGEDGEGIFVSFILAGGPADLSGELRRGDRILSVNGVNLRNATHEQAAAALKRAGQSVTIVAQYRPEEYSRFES

T7: GRIP1_2, Q9Y3R0
T7 sequence (Q9Y3R0 145-248, limits assumed, looked up): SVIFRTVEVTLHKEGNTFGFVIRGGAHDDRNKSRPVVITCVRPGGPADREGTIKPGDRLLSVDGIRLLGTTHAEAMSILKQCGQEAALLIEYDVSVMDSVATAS

T8: GRIP1_5, Q9Y3R0
T8 sequence (Q9Y3R0 568-668, limits assumed, looked up): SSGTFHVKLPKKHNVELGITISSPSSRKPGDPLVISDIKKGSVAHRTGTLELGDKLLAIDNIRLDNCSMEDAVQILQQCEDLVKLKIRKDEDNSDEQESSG

T9: MPDZ_5, O75970
T9 sequence (O75970 695-796, limits assumed, looked up): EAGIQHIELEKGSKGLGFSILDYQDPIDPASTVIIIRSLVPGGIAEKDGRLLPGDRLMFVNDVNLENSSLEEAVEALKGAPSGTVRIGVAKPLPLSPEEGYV

T10: MPP2, Q14168
T10 sequence (Q14168 180-250, limits assumed, looked up): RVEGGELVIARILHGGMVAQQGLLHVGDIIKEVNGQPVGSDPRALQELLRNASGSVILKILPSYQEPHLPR

T11: NHERF3_3, Q5T2W1
T11 sequence (Q5T2W1 238-333, limits assumed, looked up): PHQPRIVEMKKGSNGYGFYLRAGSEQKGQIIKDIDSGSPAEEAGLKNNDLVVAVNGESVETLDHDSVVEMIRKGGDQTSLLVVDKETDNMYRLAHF

T12: SNTB1, Q13884
T12 sequence (Q13884 107-205, limits assumed, looked up): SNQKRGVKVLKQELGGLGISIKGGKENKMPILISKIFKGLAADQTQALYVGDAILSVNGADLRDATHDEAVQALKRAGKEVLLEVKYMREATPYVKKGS


How the values were obtained:
Test in all cases: holdup assay
Design in all cases: key: below the threshold = too weak to quantify, mostly under pKd 3.1 to 4
Conditions in all cases: plain residues with an end cap or a label only (N-terminal biotin on a linker: ado-ado)
[1] = target: T1, APBA1_1, Q02410
[2] = target: T2, APBA2_1, Q99767
[3] = target: T3, APBA2_2, Q99767
[4] = target: T4, ARHGEF11, O15085
[5] = target: CASK, O14936
Sequence of CASK, O14936 (O14936 487-570): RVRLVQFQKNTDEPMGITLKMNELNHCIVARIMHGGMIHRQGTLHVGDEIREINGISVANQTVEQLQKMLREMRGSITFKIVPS

[6] = target: T5, DFNB31_1, Q9P202
[7] = target: DLG1_2, Q12959
Sequence of DLG1_2, Q12959 (Q12959 314-412): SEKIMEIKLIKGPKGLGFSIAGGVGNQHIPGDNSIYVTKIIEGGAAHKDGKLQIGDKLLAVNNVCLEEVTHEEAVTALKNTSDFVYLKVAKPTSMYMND

[8] = target: DLG1_3, Q12959
Sequence of DLG1_3, Q12959 (Q12959 457-571): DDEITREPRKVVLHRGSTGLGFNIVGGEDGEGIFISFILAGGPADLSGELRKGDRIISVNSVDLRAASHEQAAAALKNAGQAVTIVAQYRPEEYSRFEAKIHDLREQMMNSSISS

[9] = target: T6, DLG3_3, Q92796
[10] = target: DLG4_1, P78352
Sequence of DLG4_1, P78352 (P78352 62-152): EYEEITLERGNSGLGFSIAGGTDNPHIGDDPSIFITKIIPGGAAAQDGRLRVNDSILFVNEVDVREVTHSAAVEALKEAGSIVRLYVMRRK

[11] = target: FRMPD4, Q14CM0
Sequence of FRMPD4, Q14CM0 (Q14CM0 67-160): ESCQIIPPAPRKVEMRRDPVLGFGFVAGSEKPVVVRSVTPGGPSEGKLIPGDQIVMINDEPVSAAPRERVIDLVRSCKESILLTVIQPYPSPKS

[12] = target: GOPC, Q9HD26
[13] = target: GORASP2, Q9H8Y8
[14] = target: GRID2IP_2, A4D2P6
Sequence of GRID2IP_2, A4D2P6 (A4D2P6 272-370): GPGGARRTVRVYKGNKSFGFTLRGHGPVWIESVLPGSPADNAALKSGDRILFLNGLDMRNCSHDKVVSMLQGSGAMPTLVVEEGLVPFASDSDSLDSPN

[15] = target: T7, GRIP1_2, Q9Y3R0
[16] = target: T8, GRIP1_5, Q9Y3R0
[17] = target: IL16_1, Q14005
Sequence of IL16_1, Q14005 (Q14005 210-306): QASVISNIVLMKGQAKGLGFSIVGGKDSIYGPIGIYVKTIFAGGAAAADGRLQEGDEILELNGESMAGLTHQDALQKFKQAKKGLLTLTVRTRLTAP

[18] = target: IL16_3, Q14005
Sequence of IL16_3, Q14005 (Q14005 1107-1207): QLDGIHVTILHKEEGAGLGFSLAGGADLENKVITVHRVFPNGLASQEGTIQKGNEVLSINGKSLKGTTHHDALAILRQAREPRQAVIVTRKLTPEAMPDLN

[19] = target: LNX1_1, Q8TBB1
Sequence of LNX1_1, Q8TBB1 (Q8TBB1 261-371): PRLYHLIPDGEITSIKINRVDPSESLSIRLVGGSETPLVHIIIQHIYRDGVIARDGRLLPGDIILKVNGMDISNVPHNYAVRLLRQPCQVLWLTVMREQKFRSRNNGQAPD

[20] = target: LNX1_2, Q8TBB1
Sequence of LNX1_2, Q8TBB1 (Q8TBB1 371-470): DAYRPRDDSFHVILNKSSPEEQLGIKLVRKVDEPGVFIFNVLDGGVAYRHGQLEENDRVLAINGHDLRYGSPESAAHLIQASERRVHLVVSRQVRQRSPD

[21] = target: T9, MPDZ_5, O75970
[22] = target: T10, MPP2, Q14168
[23] = target: T11, NHERF3_3, Q5T2W1
[24] = target: NHERF4_4, Q86UT5
Sequence of NHERF4_4, Q86UT5 (Q86UT5 464-550): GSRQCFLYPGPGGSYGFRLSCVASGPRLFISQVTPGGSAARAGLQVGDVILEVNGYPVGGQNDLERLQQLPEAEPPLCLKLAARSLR

[25] = target: T12, SNTB1, Q13884
[26] = target: TJP1_3, Q07157
Sequence of TJP1_3, Q07157 (Q07157 416-512): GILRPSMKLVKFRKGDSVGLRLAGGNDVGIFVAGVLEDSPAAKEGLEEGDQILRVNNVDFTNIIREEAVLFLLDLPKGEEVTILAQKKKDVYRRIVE

pKd [1]	pKd [2]	pKd [3]	pKd [4]	pKd [5]	pKd [6]	pKd [7]	pKd [8]	pKd [9]	pKd [10]	pKd [11]	pKd [12]	pKd [13]	pKd [14]	pKd [15]	pKd [16]	pKd [17]	pKd [18]	pKd [19]	pKd [20]	Binder	other results
below the threshold	below the threshold	below the threshold	4.37	below the threshold	below the threshold	below the threshold	below the threshold	below the threshold	below the threshold	4.43	below the threshold	below the threshold	below the threshold	below the threshold	below the threshold	below the threshold	below the threshold	below the threshold	3.68	GDGLDDEIAV [NOS1AP, O75052]	pKd [21]: below the threshold; pKd [22]: below the threshold; pKd [23]: below the threshold; pKd [24]: below the threshold; pKd [25]: below the threshold; pKd [26]: below the threshold
below the threshold	below the threshold	below the threshold	4.13	below the threshold	below the threshold	4.23	below the threshold	below the threshold	3.82	below the threshold	3.87	below the threshold	3.95	below the threshold	below the threshold	below the threshold	below the threshold	3.7	below the threshold	QNRIITKTDV [SMCHD1, A6NHR9]	pKd [21]: below the threshold; pKd [22]: below the threshold; pKd [23]: below the threshold; pKd [24]: below the threshold; pKd [25]: 3.64; pKd [26]: below the threshold
below the threshold	below the threshold	below the threshold	3.89	below the threshold	3.59	below the threshold	3.64	below the threshold	3.69	below the threshold	4.52	3.56	4.28	below the threshold	below the threshold	below the threshold	below the threshold	3.74	below the threshold	YPKQMPLSQV [FZD8, Q9H461]	pKd [21]: below the threshold; pKd [22]: below the threshold; pKd [23]: below the threshold; pKd [24]: below the threshold; pKd [25]: below the threshold; pKd [26]: below the threshold
